Assay: yeast display, Sf9 membrane polyspecificity reagent, FACS + sequencing; frameworks hold sequencing errors
Outline: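 A synthetic nanobody library was expressed on Saccharomyces cerevisiae BJ5465 by galactose induction for 36–48 hours. The library was stained for 1 hour at 4 °C with 10% biotinylated, detergent-solubilized Sf9 membrane reagent and enriched with streptavidin microbeads before FACS. Low and high (top ~1%) gates were set on anti-HA fluorescence for expression and streptavidin fluorescence for reagent binding, and each polyreactivity label reflects the gate of origin.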

Q: For “QVQLVESGGGLVQAGGSLRLSCAASGSTFPEYAMGWYRQAPGKERELVATISWSGGSTDYADSVKGRITISRDNAKNTVYLQMNSLKPEDTAVYYCNKELIPHFDTRESWGQGTQVSVSS”, which “polyreactivity (PSR sort gate)” value is on record?
A: The value was “low polyreactivity”.

Q: For “QVQLVDSGGGLVQAGGSLRLGCAASGRIFAGYGMGWYRQAPGKERELVATITSGGSTYYADSLKGRFTISRDNAKNTVYLQMNSLKPEDTAVYYCNRYFSEALLHGSSYNRYYYWGQGTQVSVSS”, which “polyreactivity (PSR sort gate)” value is on record?
A: The value was “low polyreactivity”.

Q: With “QVQLVESGGCLVQAGGSLRLSCAASGSTFPIYAMGWYRQAPGKERELVARITWNGGRTYYADSVKGRFTISRDNAKNTVYLQMNSLKPEDTAVYYCNALYYHNLEGNYWGQGTQVTVSS” as the sequence, how does the “polyreactivity (PSR sort gate)” value read?
A: The value was “high polyreactivity”.

Q: With “QVQLVESGGGLVQAGGILRLSCAASGRIFYVNAMGWYRQAPGKERELVATIRRGGDTNYADSVKGRFTISRDNAKNTVYLQMNSLNPEDTAVYYCAAKAYQSSYQRYYWGQGTQVTVSS” as the sequence, how does the “polyreactivity (PSR sort gate)” value read?
A: Its value is “high polyreactivity”.

Q: Which “polyreactivity (PSR sort gate)” value does the source give for “QVQLVESGGGLVQAGGSLRLSCAASGRTLVLYAMGWYRQAPGKERELVAAITWSGDSTYYADSVKGRFTISRDNAKNTVYLQMNSLKPEDTAVYYCAADKSYRRVYYWGQGTQVTVSS” here?
A: Its value is “low polyreactivity”.

Q: For “QVQLVESGGGLFQAGGSLRISCAASGRTFSYYAMGWYRQAPVKERELVAAISWSGVITYYADSVKGRFTISRDNAKNTVYLQMNSMKPEDTAVYYCASRPYWSEFDYDYWGQGTQVTLSS”, which “polyreactivity (PSR sort gate)” value is on record?
A: Its value is “low polyreactivity”.

Q: Which “polyreactivity (PSR sort gate)” value does the source give for “QVQLVESGGGLVQAGGSLRLSCAASGRTFFDYTMGWYRQAPGKERELVAAITGGDGSTYYADSVKGRFTISRDNAKNTVYLQMNSLKPEDTAVYYCAAGYTAGSYSLDADYYWGQGTQVTVSS” here?
A: Its value is “low polyreactivity”.

Q: With “QVQLVESGGGLVQAGGSLRLSCAASGSIFWTNAMGWYRQAPGKERELVAAIRVSTGSTYYADSVKGRFTISRDNAKNTVYLQMNSLKPEDTAVYYCAARTYGWGYDYWGQGTQVTVSS” as the sequence, how does the “polyreactivity (PSR sort gate)” value read?
A: Its value is “low polyreactivity”.

Q: Which “polyreactivity (PSR sort gate)” value does the source give for “QVQLVESGGGLVQAGGSLRLSCAASGRILVVNAMGWYRQAPRKERELVAAISTTGGRTYYADSVKGRFTISRDNAKNTVYLQMKSLKPEDTAVYYCSKDDGRFGRTHEHDYWGHGTQVTVSS” here?
A: Its value is “high polyreactivity”.

Q: Which “polyreactivity (PSR sort gate)” value does the source give for “QVQLVESGGGLVQAGGSLRLSCAASGRIFSFNAMGWYRPAPGKERELVATISWNGDSTYADSVKGRFTISRDNAKNTVYLQMNSLKPEDTAVYYCAVDVPPWDYDYWGQGTQVTVSS” here?
A: The value was “low polyreactivity”.

Q: With “QVQLVESGGGLVQAGGSLRLSCAASGRIFRYNTMGWYRQAPGKERELVASITYRGGSTYYADSVKGRFTISRDNAKNTVYLQMNSLKPEDTAVYYCAASPARYWYGGKEYDYWGQGTQVTVSS” as the sequence, how does the “polyreactivity (PSR sort gate)” value read?
A: Its value is “high polyreactivity”.

Q: For “QVQLVESGGGLVQAGGSLRLICAASGSIFGYNAMVWYRQAPGKERELVAVINASGASTYYADSVKGRFTISRDNAKNTVYLHMNSLKPEDTAVYSCAKDPFPFPGGDYWGQGTQVTVSS”, which “polyreactivity (PSR sort gate)” value is on record?
A: The value was “low polyreactivity”.

Q: Which “polyreactivity (PSR sort gate)” value does the source give for “QVQLVEYGGGLVQAGGSLRLSCAASGRIFNYYAMGWYRQAPGKEREFVAAITRSGGRTYYADSVKGRFTISRDNAKNTVYLQMNILKPEDTAVYYCAAPYGTYAYDYSGQGTQVTVSS” here?
A: The value was “high polyreactivity”.

Q: For “QVQLVESGGGLVQAGGSLRLSCAASGFIFYIYAMGWYRQAPGKERELVAAITSGGSTYYADSVKGRFTISRDNAKNTVYLQMNSLKPEDTAVYFCAAESYYGYDYWGQGTQVTLSS”, which “polyreactivity (PSR sort gate)” value is on record?
A: The value was “low polyreactivity”.

Q: With “QVQLQESGGGLVQEGGSLRLRCAASRNISGSSDLGWYHQAPGKEREFVASITSGGTTYYADSVKGRFTISRDNAKNTVYLQMNSLKPEDTAVYYCAVGDPADAEFGYWGQGTQVTVSS” as the sequence, how does the “polyreactivity (PSR sort gate)” value read?
A: The value was “low polyreactivity”.

Q: For “QVQLVESGGGLVQAGGSLRLSCAASGSTFTHYAMGWYRQAPGKERELVAAISSGGSTYYADSVKGRFTISRDNAKNTVYLQMNILKPEDTAVYYCASDYYWHDWWYPHDYWGQGTQVTLSS”, which “polyreactivity (PSR sort gate)” value is on record?
A: The value was “low polyreactivity”.

Q: Which “polyreactivity (PSR sort gate)” value does the source give for “QVQLVESGGGIDQAGGSLRLSCAASAFTLINYAMAWYRQAPGKERELVAAISQSGGSTYYADSVKGRFTISSDNAKNTVYLQMNSLKPEDTAVYYCNARRRGWGWTIGYVWRDDYWGQGTQVTVSS” here?
A: Its value is “high polyreactivity”.

Q: With “QVQLVESGGGLLQAGGSLRLSCASSGSTFGGNAMGRYRQAPGKERELVAAITVGGDSTYYADSVKGRFTISRDNAKNTVYLQMNSLKPEDTAVYYCNASNVYFWFVTLEFDYWGQGTQVTVSS” as the sequence, how does the “polyreactivity (PSR sort gate)” value read?
A: The value was “low polyreactivity”.

Q: Which “polyreactivity (PSR sort gate)” value does the source give for “QVQLHESGGGLVQAGGSLRLSCAASGTISYAGPMGWYRQAPGKEREFVAGIGVGSNTNYADSVKGRYTIIRDNAKNTVYLQMTSLKPEETAVYYCAVGGYAPLGPPYWGQGTQVTVSS” here?
A: Its value is “low polyreactivity”.

Q: Which “polyreactivity (PSR sort gate)” value does the source give for “QVQLVESGGGLVQAGGSLRLSCAASGRSFWRNAMGWYRQAPGRERELVAAMSRGGSTNYADSVKGRFTMSRDNAKKTVYLPMNSLKPEDTAVYYCAARYYYRYNYWRQGTQVTVSS” here?
A: The value was “high polyreactivity”.

Q: Which “polyreactivity (PSR sort gate)” value does the source give for “QDQLVESAAGLVQAGGSLRLSCAASGSTFATYAMGWYRKAPGKERELVAAITASGGRTFYADSVKGRFTLSRDNAKNTVYLQMNSLKPEDPAVYYCAKRGDYVPYTFDYWGQGTQVTVSS” here?
A: Its value is “high polyreactivity”.

Q: With “QVQLVESGGGLVQAGGSLRLSCAASGITFFTYAMGWYRQAPGKEREFVATISYGGGSTYYADSVKGRFTISRDNAKNTVYLQMNSLKPEDTAVYYCNAEGYVPTYFQHYAYWGQGTQVTVSS” as the sequence, how does the “polyreactivity (PSR sort gate)” value read?
A: The value was “low polyreactivity”.

Q: Which “polyreactivity (PSR sort gate)” value does the source give for “QVQLVESGGGLVQAGGSLRLSCAASGSTFYPYAMGWYRQAPGKERELVAAITSGGRTYYADSVKGRFTISRDNAKNTVYLQMNSLKPEDTAVYYCAALQYRRLRDYRHDYWGQGTQVTVSS” here?
A: Its value is “high polyreactivity”.

Q: With “QVQLVESGGGLVQAGGSLRLSCAASGNIFDSYAMGWYRQAPGKERELVAAISFSGGNTYYADSVKGRFTISRDNAKNTVYLQMNSLKPEDTAVYYCAADYFAVTPYRAADVAEDYWGQGTQVTVSS” as the sequence, how does the “polyreactivity (PSR sort gate)” value read?
A: The value was “low polyreactivity”.

Q: For “QVQLVESGGGLVQAGGSLRLSCAASGITFHRYAMGWYRQAPGKERELVAAISGSGGNTYYADSVKGRFTISRDNAKNTVYLQMNILKPEDTAVYYCAAYPSWYVYPKYYYWGQGTQVTVSS”, which “polyreactivity (PSR sort gate)” value is on record?
A: The value was “high polyreactivity”.

Q: With “QVQLVESGGGLVQAGGSLRLSCAASGSIFYRYAMGWYRQAPGKERELVASISSGVSTNYADSVKGRFTISRDNAKNTVYLQLNSLKPEDTAVYYCAVRHRYTRAYWGRDYWGQGTQVTVSS” as the sequence, how does the “polyreactivity (PSR sort gate)” value read?
A: Its value is “low polyreactivity”.

Q: Which “polyreactivity (PSR sort gate)” value does the source give for “QVQLVESGGGLVQAGGSLRLSCAASGSTFRGNAMGWSRQAPGKERELVAAISSSGGSTYYADSVKGRFTISRDNAKNTVYLQMNSLKPEDTAVYYCAALYHWTYDYWGQGTQVTVSS” here?
A: The value was “low polyreactivity”.

Q: For “QVQLVESGGGLVQAGGSLRLSCAASGIIFTVYTMGWYRQAPGKERELVAAITTNGGSTYYADSVKGRFTISRDNAKNTVYLQMNSLKPEDTAVYYCAADYPYKPITYDYWGQGTQVTVSS”, which “polyreactivity (PSR sort gate)” value is on record?
A: The value was “low polyreactivity”.

Q: Which “polyreactivity (PSR sort gate)” value does the source give for “QVQLVESGGGLVQAGGSLRLSSAASGRNYPKYAMGSYRQAPGKERELVAAISQRGGSTYYADSVKGRFTISRDNAKNTVYLQMNSLKPEDTAVYYCAASYYRQSGEYDYWGQGTLVTVSS” here?
A: The value was “low polyreactivity”.

Q: Which “polyreactivity (PSR sort gate)” value does the source give for “QVQLVESGGGLVQAGGSLRLTCAASGSIFEGNAMGWYRQAPGKESELVASISGDGSTNYADSVKGRFTISRDNAKNSVYLQMNSLKPEDTAVYYCNADTISEPGFHMDYWGQGNQVTVSS” here?
A: Its value is “low polyreactivity”.

Q: For “QVQLVESGGGLVQAGGSLRLSCAASGITFGRNTKGWYRQAPGKERELVAAIDSGGNTYADSVKGRFTISRDNAKNTVYLQMNSLKPEDTAVYYCAADSYPAYLGFVGFDYWVQGTQVTVSS”, which “polyreactivity (PSR sort gate)” value is on record?
A: Its value is “low polyreactivity”.

Q: Which “polyreactivity (PSR sort gate)” value does the source give for “QVQLVESGGGLVQAGGSLRLSCAASGSTFDRYTLGWYRQAPGKERELVAGISNSGGSTYYADSVKGRFTISRDNAKNTVYLQMNSLKPEDTAVYYCAAAYSIRRILYYYWGQGTHVTVSS” here?
A: The value was “high polyreactivity”.
